# T1: GST-FliJ (purified) (Salmonella enterica serovar Typhimurium, UniProt P0A1K1 1-147)
# T1 sequence (looked up): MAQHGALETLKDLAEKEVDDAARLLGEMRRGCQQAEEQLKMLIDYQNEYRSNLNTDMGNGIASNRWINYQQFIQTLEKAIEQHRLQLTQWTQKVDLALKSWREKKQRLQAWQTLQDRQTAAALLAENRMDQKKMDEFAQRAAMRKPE
# B1: His-FlgN (natural protein, Salmonella enterica serovar Typhimurium, UniProt P0A1J7 1-140, looked up)
# chain: MTRLSEILDQMTTVLNDLKTVMDAEQQQLSVGQINGSQLQRITEEKSSLLATLDYLEQQRRLEQNAQRSANDDIAERWQAITEKTQHLRDLNQHNGWLLEGQIERNQQALEVLKPHQEPTLYGADGQTSVSHRGGKKISI
# Tests used:
# [1] = target: B1; assay: SPR
# [2] = target: T1, GST-FliJ (purified); assay: SPR
Binder,Kd [1],Kd [2]
"GST-FliJ(Δ13–24) (natural protein, Salmonella enterica serovar Typhimurium, UniProt P0A1K1 1-147, looked up) MAQHGALETLKDLGEMRRGCQQAEEQLKMLIDYQNEYRSNLNTDMGNGIASNRWINYQQFIQTLEKAIEQHRLQLTQWTQKVDLALKSWREKKQRLQAWQTLQDRQTAAALLAENRMDQKKMDEFAQRAAMRKPE",7.74 ± 0.12 µM,–
B1,–,27.4 ± 13 µM
